# Target: marh2_human MARCHF2 (UniProt Q9P0N8)
# Sequence (Q9P0N8 whole entry): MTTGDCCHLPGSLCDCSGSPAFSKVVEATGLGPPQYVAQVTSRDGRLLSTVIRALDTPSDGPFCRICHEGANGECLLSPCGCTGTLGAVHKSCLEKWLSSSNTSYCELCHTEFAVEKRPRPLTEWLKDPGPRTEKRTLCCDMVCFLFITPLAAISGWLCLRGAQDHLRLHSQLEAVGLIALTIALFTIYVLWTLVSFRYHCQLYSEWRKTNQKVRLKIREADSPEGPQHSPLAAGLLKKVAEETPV
# Sequence of Endoplasmic reticulum-Golgi intermediate compartment protein 3 (Homo sapiens), Q9Y282 K6R;K8R (Q9Y282 whole entry K6R/K8R): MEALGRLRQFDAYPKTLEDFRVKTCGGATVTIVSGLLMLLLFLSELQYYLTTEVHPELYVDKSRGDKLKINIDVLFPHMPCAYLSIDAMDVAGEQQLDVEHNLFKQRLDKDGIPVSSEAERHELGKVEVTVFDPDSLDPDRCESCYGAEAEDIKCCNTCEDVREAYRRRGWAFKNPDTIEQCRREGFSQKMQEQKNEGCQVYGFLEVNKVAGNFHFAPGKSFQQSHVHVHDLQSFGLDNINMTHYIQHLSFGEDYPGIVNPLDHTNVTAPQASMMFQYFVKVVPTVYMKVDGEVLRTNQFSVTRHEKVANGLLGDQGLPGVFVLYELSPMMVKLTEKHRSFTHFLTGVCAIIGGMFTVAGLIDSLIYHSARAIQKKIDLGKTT
substance,measurement,value
"Endoplasmic reticulum-Golgi intermediate compartment protein 3 (Homo sapiens), Q9Y282 K6R;K8R",effect of a mutation on the interaction,with no effect
